Reference: US20200299347A1 (Merck KGaA, published 2020)

Columns and labels:
NGF = assay: cell-based or functional assay
FGFR3 = assay: cell-based or functional assay

Sequence of NGF (P01138 122-241): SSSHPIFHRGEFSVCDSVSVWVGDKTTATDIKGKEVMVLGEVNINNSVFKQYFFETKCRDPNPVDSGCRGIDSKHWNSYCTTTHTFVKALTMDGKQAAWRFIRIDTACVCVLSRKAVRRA

Row | Binder | anti-NGF IC50 (nM), U2OS TrkA_p75 assay; construct from expiCHO-S (NGF) [nM] | FGF18 EC50 (nM), BaF3/FGFR3 assay; construct from expiCHO-S (FGFR3) [nM] | anti-NGF IC50 (nM), U2OS TrkA_p75 assay; construct from HEK293 (NGF) [nM] | FGF18 EC50 (nM), BaF3/FGFR3 assay; construct from HEK293 (FGFR3) [nM]
1 | FGF18 SEED (HO124) (other) EENVDFRIHVENQTRARDDVSRKQLRLYQLYSRTSGKHIQVLGRRISARGEDGDKYAQLLVETDTFGSQVRIKGKETEFYLCMNRKGKLVGKPDGTSKECVFIEKVLENNYTALMSAKYSGWYVGFTKKGRPRKGPKTRENQQDVHFMKRYPKGQPELQKPFKYTTVTKGGSGGSGSGSEPKSSDKTHTCPPCPAPEAAGGPSVFLFPPKPKDTLMISRTPEVTCVVVDVSHEDPEVKFNWYVDGVEVHNAKTKPREEQYNSTYRVVSVLTVLHQDWLNGKEYKCKVSNKALGAPIEKTISKAKGQPREPQVYTLPPPSEELALNELVTLTCLVKGFYPSDIAVEWLQGSQELPREKYLTWAPVLDSDGSFFLYSILRVAAEDWKKGDTFSCSVMHEALHNRFTQKSLDRSPGK heavy: QVQLQESGPGLVKPSETLSLTCTVSGFSLIGYDLNWIRQPPGKGLEWIGIIWGDGTTDYNSAVKSRVTISKDTSKNQFSLKLSSVTAADTAVYYCARGGYWYATSYYFDYWGQGTLVTVSSASTKGPSVFPLAPSSKSTSGGTAALGCLVKDYFPEPVTVSWNSGALTSGVHTFPAVLQSSGLYSLSSVVTVPSSSLGTQTYICNVNHKPSNTKVDKKVEPKSCDKTHTCPPCPAPEAAGGPSVFLFPPKPKDTLMISRTPEVTCVVVDVSHEDPEVKFNWYVDGVEVHNAKTKPREEQYNSTYRVVSVLTVLHQDWLNGKEYKCKVSNKALGAPIEKTISKAKGQPFRPEVHLLPPSREEMTKNQVSLTCLARGFYPKDIAVEWESNGQPENNYKTTPSRQEPSQGTTTFAVTSKLTVDKSRWQQGNVFSCSVMHEALHNHYTQKTISLSPGK light: not shown | 0.89 | 0.07 | – | –
2 | FGF18 SEED (HO114) (other) heavy: QVQLQESGPGLVKPSETLSLTCTVSGFSLIGYDLNWIRQPPGKGLEWIGIIWGDGTTDYNSAVKSRVTISKDTSKNQFSLKLSSVTAADTAVYYCARGGYWYATSYYFDYWGQGTLVTVSSASTKGPSVFPLAPSSKSTSGGTAALGCLVKDYFPEPVTVSWNSGALTSGVHTFPAVLQSSGLYSLSSVVTVPSSSLGTQTYICNVNHKPSNTKVDKKVEPKSCDKTHTCPPCPAPEAAGGPSVFLFPPKPKDTLMISRTPEVTCVVVDVSHEDPEVKFNWYVDGVEVHNAKTKPREEQYNSTYRVVSVLTVLHQDWLNGKEYKCKVSNKALGAPIEKTISKAKGQPFRPEVHLLPPSREEMTKNQVSLTCLARGFYPKDIAVEWESNGQPENNYKTTPSRQEPSQGTTTFAVTSKLTVDKSRWQQGNVFSCSVMHEALHNHYTQKTISLSPGK EPKSSDKTHTCPPCPAPEAAGGPSVFLFPPKPKDTLMISRTPEVTCVVVDVSHEDPEVKFNWYVDGVEVHNAKTKPREEQYNSTYRVVSVLTVLHQDWLNGKEYKCKVSNKALGAPIEKTISKAKGQPREPQVYTLPPPSEELALNELVTLTCLVKGFYPSDIAVEWLQGSQELPREKYLTWAPVLDSDGSFFLYSILRVAAEDWKKGDTFSCSVMHEALHNRFTQKSLDRSPGK light: not shown | 0.88 | 0.02 | – | –
3 | FGF18_scFv fasinumab (LH) (other) EENVDFRIHVENQTRARDDVSRKQLRLYQLYSRTSGKHIQVLGRRISARGEDGDKYAQLLVETDTFGSQVRIKGKETEFYLCMNRKGKLVGKPDGTSKECVFIEKVLENNYTALMSAKYSGWYVGFTKKGRPRKGPKTRENQQDVHFMKRYPKGQPELQKPFKYTTVTKGGGGSGGGGSGGGGSDIQMTQSPSSLSASAGDRVTITCRASQAIRNDLGWYQQKPGKAPKRLIYAAFNLQSGVPSRFSGSGSGTEFTLTISSLQPEDLASYYCQQYNRYPWTFGQGTKVEIKGGGGSGGGGSGGGGSQVQLVQSGAEVKKPGASVKVSCKVSGFTLTELSIHWVRQAPGKGLEWMGGFDPEDGETIYAQKFQGRVTMTEDTSTDTAYMELTSLRSEDTAVYYCSTIFGVVTNFDNWGQGTLVTVSS | – | – | 0.62 | 0.06
4 | FGF18 SEED (HOF3) (other) light: not shown heavy: QVQLQESGPGLVKPSETLSLTCTVSGFSLIGYDLNWIRQPPGKGLEWIGIIWGDGTTDYNSAVKSRVTISKDTSKNQFSLKLSSVTAADTAVYYCARGGYWYATSYYFDYWGQGTLVTVSSASTKGPSVFPLAPSSKSTSGGTAALGCLVKDYFPEPVTVSWNSGALTSGVHTFPAVLQSSGLYSLSSVVTVPSSSLGTQTYICNVNHKPSNTKVDKKVEPKSC | 0.98 | 0.05 | – | –
5 | FGF18 SEED (HO110) (other) EPKSSDKTHTCPPCPAPEAAGGPSVFLFPPKPKDTLMISRTPEVTCVVVDVSHEDPEVKFNWYVDGVEVHNAKTKPREEQYNSTYRVVSVLTVLHQDWLNGKEYKCKVSNKALGAPIEKTISKAKGQPREPQVYTLPPPSEELALNELVTLTCLVKGFYPSDIAVEWLQGSQELPREKYLTWAPVLDSDGSFFLYSILRVAAEDWKKGDTFSCSVMHEALHNRFTQKSLDRSPGKEPKSSDKTHTEENVDFRIHVENQTRARDDVSRKQLRLYQLYSRTSGKHIQVLGRRISARGEDGDKYAQLLVETDTFGSQVRIKGKETEFYLCMNRKGKLVGKPDGTSKECVFIEKVLENNYTALMSAKYSGWYVGFTKKGRPRKGPKTRENQQDVHFMKRYPKGQPELQKPFKYTTVTK heavy: QVQLQESGPGLVKPSETLSLTCTVSGFSLIGYDLNWIRQPPGKGLEWIGIIWGDGTTDYNSAVKSRVTISKDTSKNQFSLKLSSVTAADTAVYYCARGGYWYATSYYFDYWGQGTLVTVSSASTKGPSVFPLAPSSKSTSGGTAALGCLVKDYFPEPVTVSWNSGALTSGVHTFPAVLQSSGLYSLSSVVTVPSSSLGTQTYICNVNHKPSNTKVDKKVEPKSCDKTHTCPPCPAPEAAGGPSVFLFPPKPKDTLMISRTPEVTCVVVDVSHEDPEVKFNWYVDGVEVHNAKTKPREEQYNSTYRVVSVLTVLHQDWLNGKEYKCKVSNKALGAPIEKTISKAKGQPREPQVYTLPPPSEELALNELVTLTCLVKGFYPSDIAVEWLQGSQELPREKYLTWAPVLDSDGSFFLYSILRVAAEDWKKGDTFSCSVMHEALHNRFTQKSLDRSPGK light: not shown | 0.89 | 0.02 | – | –
6 | FGF18 SEED (HO113) (other) EPKSSDKTHTCPPCPAPEAAGGPSVFLFPPKPKDTLMISRTPEVTCVVVDVSHEDPEVKFNWYVDGVEVHNAKTKPREEQYNSTYRVVSVLTVLHQDWLNGKEYKCKVSNKALGAPIEKTISKAKGQPREPQVYTLPPPSEELALNELVTLTCLVKGFYPSDIAVEWLQGSQELPREKYLTWAPVLDSDGSFFLYSILRVAAEDWKKGDTFSCSVMHEALHNRFTQKSLDRSPGKGGGGSEPKSSDKTHTGGGGSEENVDFRIHVENQTRARDDVSRKQLRLYQLYSRTSGKHIQVLGRRISARGEDGDKYAQLLVETDTFGSQVRIKGKETEFYLCMNRKGKLVGKPDGTSKECVFIEKVLENNYTALMSAKYSGWYVGFTKKGRPRKGPKTRENQQDVHFMKRYPKGQPELQKPFKYTTVTKRSRRIRPTHPA heavy: QVQLQESGPGLVKPSETLSLTCTVSGFSLIGYDLNWIRQPPGKGLEWIGIIWGDGTTDYNSAVKSRVTISKDTSKNQFSLKLSSVTAADTAVYYCARGGYWYATSYYFDYWGQGTLVTVSSASTKGPSVFPLAPSSKSTSGGTAALGCLVKDYFPEPVTVSWNSGALTSGVHTFPAVLQSSGLYSLSSVVTVPSSSLGTQTYICNVNHKPSNTKVDKKVEPKSCDKTHTCPPCPAPEAAGGPSVFLFPPKPKDTLMISRTPEVTCVVVDVSHEDPEVKFNWYVDGVEVHNAKTKPREEQYNSTYRVVSVLTVLHQDWLNGKEYKCKVSNKALGAPIEKTISKAKGQPREPQVYTLPPPSEELALNELVTLTCLVKGFYPSDIAVEWLQGSQELPREKYLTWAPVLDSDGSFFLYSILRVAAEDWKKGDTFSCSVMHEALHNRFTQKSLDRSPGK light: not shown | 0.95 | 0.1 | – | –
7 | FGF18_scFv tanezumab (LH) (other) EENVDFRIHVENQTRARDDVSRKQLRLYQLYSRTSGKHIQVLGRRISARGEDGDKYAQLLVETDTFGSQVRIKGKETEFYLCMNRKGKLVGKPDGTSKECVFIEKVLENNYTALMSAKYSGWYVGFTKKGRPRKGPKTRENQQDVHFMKRYPKGQPELQKPFKYTTVTKGGGGSGGGGSGGGGSDIQMTQSPSSLSASVGDRVTITCRASQSISNNLNWYQQKPGKAPKLLIYYTSRFHSGVPSRFSGSGSGTDFTFTISSLQPEDIATYYCQQEHTLPYTFGQGTKLEIKGGGGSGGGGSGGGGSQVQLQESGPGLVKPSETLSLTCTVSGFSLIGYDLNWIRQPPGKGLEWIGIIWGDGTTDYNSAVKSRVTISKDTSKNQFSLKLSSVTAADTAVYYCARGGYWYATSYYFDYWGQGTLVTVSS | – | – | 0.43 | 0.16
